Each block holds one substance with its values, some of them ahead of it.
What was measured:
[1] = molecular target: T1, HLA-A*0201 (Homo sapiens, UniProt P04439, D140Y/D185E/D98H/E176V/E277Q/G131W/G231S/I119V/I121R/I166T/I218V/L300P/L318F/N151K/N90K/P208A/P217A/Q86G/Q94H/R138H/R169H/T345S); assay: Affinity of the peptide to T2 cell line: HLA-A2 labelling by FACS, relative to HIV pol 589-597; format: binding; conditions: for binding affinity to HLA-A*0201 compared with the other peptides tested (in words): Examples 2, 7, 8, 9; for binding to HLA-A*0201 as % of maximum HIV pol 589-597 binding activity: Example 8
T1 construct: the human tumoral cell T2 which expresses the HLA-A*0201 molecule; endogenous in cells; host or cells: T2 cells (human, TAP1/2 negative)
Source text: The experimental protocol is similar to the one that was validated for peptides presented by the HLA-A*0201 (Tourdot et al., A general strategy to enhance immunogenicity of low-affinity HLA-A2.1-associated peptides: implication in the identification of cryptic tumor epitopes. Eur J Immunol. 2000 December; 30(12):3411-21). Affinity measurement of the peptides is achieved with the human tumoral cell T2 which expresses the HLA-A*0201 molecule, but which is TAP1/2 negative and incapable of presenting endogenous peptides.
T2 cells (2.10^5 cells per well) are incubated with decreasing concentrations of peptides from 100 μM to 1.5625 μM in a AIMV medium supplemented with 100 ng/μl of human β2m at 37° C. for 16 hours. Cells are then washed two times and marked with the anti-HLA-A2 antibody coupled to PE (clone BB7.2, BD Pharmagen).
The analysis is achieved by FACS (Guava Easy Cyte).
A2. Solubilisation of Peptides
Each peptide is solubilized by taking into account the amino acid composition. […] Other peptides are resuspended in water or PBS pH7.4.
The experimental protocol, materials and methods correspond to those outlined in Example 2, with the only difference that the above mentioned (poly)peptides were used.

[2] = test system: T cell responses (IFNγ-producing splenocytes); assay: ELISPOT-IFNγ assay on splenocytes of vaccinated HLA-A2 humanized mice; format: in vivo, HLA-A2 (CB6F1-Tg(HLA-A*0201/H2-Kb)A*0201) mice; conditions: 100 μg vacc-pAg + 150 μg T13L + IFA s.c. d0 and d14; splenocytes d21 restimulated with vacc-pAg 10 μM
Source text: Briefly, HLA-A2 humanized mice (HLA-A2 (CB6F1-Tg(HLA-A*0201/H2-Kb)A*0201) were assigned randomly (based on mouse sex and age) to experimental groups, wherein each group was immunized with a specific vaccination peptide (vacc-pAg) combined to a common helper peptide (h-pAg T13L; sequence: […]; SEQ ID NO: 860; Bhasin M, Singh H, Raghava GP (2003) MHCBN: a comprehensive database of MHC binding and non-binding peptides. Bioinformatics 19: 665-666) (as outlined in Table 5 below). The vacc-pAg were compared in couples (group 1 vs. group 2, group 1 vs. group 3; group 1 vs. group 4; group 5 vs. group 6; group 7 vs. group 8; group 9 vs. group 10). Thereby, both native and optimized versions of a single peptide were compared in each wave.
The peptides were provided as follows: • vacc-pAg: BIRC5-H, BIRC5-B1, BIRC5-B2, BIRC5-B3, FOXM1-H2, FOXM1-B2, EZH2-H2, EZH2-B2, 1L13RA2-H and IL13RA2-B; all produced and provided at a 4 mg/ml (4 mM) concentration; • h-pAg: T13L; Eurogentec batch 1713334 re-suspended in pure distilled water at a 10 mg/mL concentration
The animals were immunized on day 0 (d0) with a prime injection, and on d14 with a boost injection. Each mouse was injected s.c. at tail base with 100 μL of an oil-based emulsion that contained: • 100 μg of vacc-pAg (25 μL of 4 mg/mL stock per mouse); • 150 μg of h-pAg (15 μL of 10 mg/mL stock per mouse); • 10 μL of PBS to reach a total volume of 50 μL (per mouse); • Incomplete Freund's Adjuvant (IFA) added at 1:1 (v:v) ratio (50 μL per mouse).
A separate emulsion was prepared for each vacc-pAg, as follows: IFA reagent was added to the vacc-pAg/h-pAg/PBS mixture in a 15 mL tube and mixed on vortex for repeated cycles of 1 min until forming a thick emulsion.
Seven days after the boost injection (i.e. on d21), the animals were euthanized and the spleen was harvested. Splenocytes were prepared by mechanical disruption of the organ followed by 70 μm-filtering and Ficoll density gradient purification.
The splenocytes were immediately used in an ELISPOT-IFNγ assay (Table 6). Experimental conditions were repeated in triplicates, using 2*10^5 total splenocytes per well, and were cultured in presence of vacc-pAg (10 μM), lonomycin (0.1 μM) plus PMA (1 μM) or medium-only to assess for their capacity to secrete IFNγ. The commercial ELISPOT-IFNγ kit (Diaclone Kit Mujrine IFNγ ELISpot) was used following the manufacturer's instructions, and the assay was performed after about 19 h of incubation.
Spots were counted on a CTL ELISpot reader. Data plotting and statistical analysis were performed with the Prism-5 software (GraphPad Software Inc.).
The data were then normalized as a number of specific spots (the average counts obtained in the ‘medium only’ condition being subtracted) per 50*10^3 total T cells.
The individual average values (obtained from the triplicates) were next used to plot the group average values. As the functional capacity of T cells might vary from individual to individual, the data were also expressed as the percentage of the ionomycin plus PMA response per individual (see FIG. 8).

[3] = test system: T-cells (IFN-secreting splenocytes); assay: Immunogenicity and cross-reactivity, IFN ELISpot on splenocytes of immunized HHD DR3 mice; format: in vivo; conditions: for immunogenicity: immune response after challenge with the vaccination peptide or the human corresponding peptide (IFN ELISpot): 100 μg peptide + 150 μg helper peptide (DR3) + IFA s.c. days 0 and 14, splenocytes day 21; for immune response against the corresponding human peptide (cross-reactivity): same immunisation
Method: Concanavalin A (ConA) was used as a positive control.
The antigenic peptide of the invention BIRC5-B1 (SEQ ID NO: 32) and the corresponding human peptide BIRC5-H (SEQ ID NO: 593) were tested in distinct groups of male and female HHD DR3 mice expressing human HLA-A2 and HLA-DR3 MHC and lacking the murine H-2 class I and class II MHCs. Groups of 5 mice (male and female) were subcutaneously injected on days 0 and 14 with 100 μg of BIRC5-B1 or BIRC5-H, 150 μg of helper peptide (DR3) and IFA. On day 21, the mice were euthanized and splenocytes were prepared and stimulated in vitro with BIRC5-B1 or the human peptide BIRC5-H to assess their capacity to secrete IFN—as assessed by ELISpot. ConA was used as a positive control.
The antigenic peptide of the invention FOXM1-B2 (SEQ ID NO: 220) and the corresponding human peptide FOXM1-H2 (SEQ ID NO: 674) were tested in distinct groups of male and female HHD DR3 mice expressing human HLA-A2 and HLA-DR3 MHC and lacking the murine H-2 class I and class II MHCs. Groups of 5 mice (male and female) were subcutaneously injected on days 0 and 14 with 100 μg of FOXM1-B2 or FOXM1-H2, 150 μg of helper peptide (DR3) and IFA. On day 21, the mice were euthanized and splenocytes were prepared and stimulated in vitro with FOXM1-B2 or the human corresponding peptide FOXM1-H2 to assess their capacity to secrete IFN—as assessed by ELISpot. ConA was used as a positive control

[4] = test system: T-cells (IFN-secreting splenocytes); assay: Immunogenicity and cross-reactivity, confirmation in HHD DR1 mice; format: in vivo; conditions: HHD DR3 and HHD DR1 mice, summary of Examples 4 to 6

Substance: AVFRVLIPV [EZH2-B2]
T cell responses in the ELISPOT-IFNγ assay compared to the respective human reference epitope [2]: improved T cell responses | Concentration of peptide that induces 20% of HLA-A2 expression ([1]; Example 2, Table 4): 8.3 µM

Substance: FLPFGFILPV [IL13RA2-L]
Concentration of peptide that induces 20% of HLA-A2 expression ([1]; Example 2, Table 4): 3.2 µM | Concentration of peptide that induces 20% of HLA-A2 expression ([1]; Example 8, Table 8): 3.2 µM | binding affinity to HLA-A*0201 compared with the other peptides tested (in words) [1]: considerably higher binding affinity | binding to HLA-A*0201 as % of maximum HIV pol 589-597 binding activity ([1]; at 6.25 μM): 43% | binding to HLA-A*0201 as % of maximum HIV pol 589-597 binding activity ([1]; at 25 μM): 96% | binding to HLA-A*0201 as % of maximum HIV pol 589-597 binding activity ([1]; at 100 μM): 69% | immunogenicity: immune response after challenge with the vaccination peptide or the human corresponding peptide (IFN ELISpot) [3]: strongly immunogenic | immune response against the corresponding human peptide (cross-reactivity) [3]: able to drive an effective immune response against the corresponding human peptide | immune responses induced [4]: induced strong immune responses

Substance: FLVEDETVI [EZH2-B]
Concentration of peptide that induces 20% of HLA-A2 expression ([1]; Example 2, Table 4): 8.8 µM

Substance: FMLGEFLKL [BIRC5-B1]
T cell responses in the ELISPOT-IFNγ assay compared to the respective human reference epitope [2]: improved T cell responses | Concentration of peptide that induces 20% of HLA-A2 expression ([1]; Example 2, Table 4): 2.7 µM | Concentration of peptide that induces 20% of HLA-A2 expression ([1]; Example 9, Table 9): 1.24 µM | binding affinity to HLA-A*0201 compared with the other peptides tested (in words) [1]: considerably higher in vitro binding affinity | immunogenicity: immune response after challenge with the vaccination peptide or the human corresponding peptide (IFN ELISpot) [3]: strongly immunogenic | immune response against the corresponding human peptide (cross-reactivity) [3]: able to drive an effective immune response against human corresponding peptide | immune responses induced [4]: induced strong immune responses

Substance: FMVEDETVL (listed as Homo sapiens) [EZH2-H, reference compound]
Concentration of peptide that induces 20% of HLA-A2 expression ([1]; Example 2, Table 4): 13.3 µM

Substance: GLLGEFLQI [BIRC5-B3]
T cell responses in the ELISPOT-IFNγ assay compared to the respective human reference epitope [2]: improved T cell responses | Concentration of peptide that induces 20% of HLA-A2 expression ([1]; Example 2, Table 4): 22.9 µM

Substance: ILDEAYVRV [EGFR-B]
Concentration of peptide that induces 20% of HLA-A2 expression ([1]; Example 2, Table 4): 3.1 µM

Substance: LLLSAALSV [CHI3L1 B]
Concentration of peptide that induces 20% of HLA-A2 expression ([1]; Example 2, Table 4): 3.6 µM

Substance: LMDLSTTEV [FOXM1-B2]
T cell responses in the ELISPOT-IFNγ assay compared to the respective human reference epitope [2]: improved T cell responses | Concentration of peptide that induces 20% of HLA-A2 expression ([1]; Example 2, Table 4): 6.7 µM | immunogenicity: immune response after challenge with the vaccination peptide or the human corresponding peptide (IFN ELISpot) [3]: strongly immunogenic | immune response against the corresponding human peptide (cross-reactivity) [3]: able to drive an effective immune response against human corresponding peptide | immune responses induced [4]: induced strong immune responses

Substance: LMLGEFLKL [2M, reference compound]
Concentration of peptide that induces 20% of HLA-A2 expression ([1]; Example 9, Table 9): 2.87 µM

Substance: LTLGEFLKL (listed as Homo sapiens) [BIRC5-H, reference compound]
Concentration of peptide that induces 20% of HLA-A2 expression ([1]; Example 2, Table 4): 53.0 µM | Concentration of peptide that induces 20% of HLA-A2 expression ([1]; Example 9, Table 9): 95.9 µM | immunogenicity: immune response after challenge with the vaccination peptide or the human corresponding peptide (IFN ELISpot) [3]: does not induce any immune response

Substance: SMFRVLIGT (listed as Homo sapiens) [EZH2-H2, reference compound]
Concentration of peptide that induces 20% of HLA-A2 expression ([1]; Example 2, Table 4): 39.2 µM

Substance: WLPFGFILI (listed as Homo sapiens) [IL13RA2-H, reference compound]
immunogenicity: immune response after challenge with the vaccination peptide or the human corresponding peptide (IFN ELISpot) [3]: does not induce an immune response

Substance: YLLSAALTI [CHI3L1 B3]
Concentration of peptide that induces 20% of HLA-A2 expression ([1]; Example 2, Table 4): 8.6 µM

Substance: YTLGEFLYI [BIRC5-B2]
T cell responses in the ELISPOT-IFNγ assay compared to the respective human reference epitope [2]: improved T cell responses | Concentration of peptide that induces 20% of HLA-A2 expression ([1]; Example 2, Table 4): 14.7 µM

Second part, led by results:

Concentration of peptide that induces 20% of HLA-A2 expression ([1]; Example 8, Table 8): 36.5 µM | binding affinity to HLA-A*0201 compared with the other peptides tested (in words) [1]: lowest affinity of the peptides tested
Substance: 1A9V: comparative peptide (Eguchi et al., 2006): SEQ ID NO: 691 with tryptophan 1 substituted by alanine, isoleucine 9 by valine (ALPFGFILV; comparative peptide) [reference compound]

Concentration of peptide that induces 20% of HLA-A2 expression ([1]; Example 2, Table 4): 2.7 µM
Substance: FLDSLGFSL [TYMS B2]

Concentration of peptide that induces 20% of HLA-A2 expression ([1]; Example 2, Table 4): 9.5 µM
Substance: FLDSLGFST (listed as Homo sapiens) [TYMS H2, reference compound]

Concentration of peptide that induces 20% of HLA-A2 expression ([1]; Example 2, Table 4): 2.9 µM | Concentration of peptide that induces 20% of HLA-A2 expression ([1]; Example 8, Table 8): 2.9 µM | binding affinity to HLA-A*0201 compared with the other peptides tested (in words) [1]: considerably higher binding affinity
Substance: FLPFGFILV [IL13RA2-B]
T cell responses in the ELISPOT-IFNγ assay compared to the respective human reference epitope [2]: improved T cell responses

Concentration of peptide that induces 20% of HLA-A2 expression ([1]; Example 2, Table 4): 12.6 µM
Substance: LMDLSTTPL (listed as Homo sapiens) [FOXM1-H2, reference compound]
immunogenicity: immune response after challenge with the vaccination peptide or the human corresponding peptide (IFN ELISpot) [3]: does not induce immune response

Concentration of peptide that induces 20% of HLA-A2 expression ([1]; Example 2, Table 4): 46.7 µM
Substance: RLSSYLVEI [FOXM1-B]

Concentration of peptide that induces 20% of HLA-A2 expression ([1]; Example 2, Table 4): 37.6 µM
Substance: RVSSYLVPI (listed as Homo sapiens) [FOXM1-H, reference compound]

Concentration of peptide that induces 20% of HLA-A2 expression ([1]; Example 2, Table 4): 1.1 µM
Substance: SMEELLWFV [TYMS B]

Concentration of peptide that induces 20% of HLA-A2 expression ([1]; Example 2, Table 4): 4.1 µM
Substance: VLEELLWFI (listed as Homo sapiens) [TYMS H, reference compound]

— patent US12016910B2, “Antigenic peptides for prevention and treatment of cancer” (ENTEROME S.A., priority 2018, dated 2024)
